This data set can be described thus: protein stability index of a GFP-peptide fusion (yeast GPS) (PSI 1-4); higher = more stable; sorted into four equal gates, so the index is relative within each strain. Put shortly:
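For each peptide, the protein stability index sums the read frequency in every gate after multiplying it by the gate number. Read frequencies came from plasmids that were PCR-amplified from each gate and Illumina-sequenced, with reads assigned to strains by barcodes. The gates were four equal bins of GFP/Cherry fluorescence ratio applied to mid-log yeast in leucine-free medium carrying a pooled library of tiled 17-residue yeast protein peptides fused downstream of GFP on a Cherry-expressing plasmid.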

± gives the uncertainty stated by the source.

Sequence EEKEEENGDEDEDEDED [QCR6] had a protein stability index (doa10∆) of 3.68 ± 0.17, a protein stability index (pdr5∆) of 3.34 ± 0.27, a protein stability index (san1∆) of 3.27 ± 0.084 and a protein stability index (ubr1∆) of 3.64 ± 0.08.
For AKLLQENDTTLVKTKEL [FAS1], the protein stability index is, setting by setting: (doa10∆) 2.66 ± 0.14; (pdr5∆) 2.08 ± 0.27.
In the case of LELIGVLSINPDMYERK [MED7], the protein stability index is, setting by setting: (doa10∆) 2.73 ± 0.077; (pdr5∆) 2.98 ± 0.086; (san1∆) 2.89 ± 0.053; (ubr1∆) 2.73 ± 0.061.
The like results for EYGKHDFKNEESLSEEH [MED8] were, in that order, 3.3 ± 0.1, 3 ± 0.081, 3.1 ± 0.053 and 3.34 ± 0.054.
With RVLETTLVEFETIKMKE [BRN1], the protein stability index runs as follows: (doa10∆) 2.12 ± 0.22; (pdr5∆) 3.23 ± 0.14; (ubr1∆) 1.34 ± 0.086.
As to LKQEIDRGLSIKLNGST [SNU114], the protein stability index was 2.88 ± 0.092 (doa10∆), 3.17 ± 0.11 (pdr5∆), 3 ± 0.099 (san1∆) and 2.88 ± 0.09 (ubr1∆).
The corresponding values for NGGDKELEMIGGTNEDD [YCS4] are 3.25 ± 0.22, 2.79 ± 0.21, 2.46 ± 0.22 and 3.05 ± 0.27.
The corresponding values for KWSKKSMKDRAQHAVIL [RPS25A] are 2.37 ± 0.058, 2.42 ± 0.095, 2.73 ± 0.091 and 2.63 ± 0.054.
The corresponding values for ELKDICSFAVTKSSLND [YML103C/NUP188] are 2.87 ± 0.072, 2.96 ± 0.065, 2.89 ± 0.072 and 3.02 ± 0.05.
With EKLINNSDDCMMEEIIN [ECM29], the protein stability index (doa10∆) was 3.36 ± 0.11, the protein stability index (pdr5∆) was 3.1 ± 0.11, the protein stability index (san1∆) stood at 3.1 ± 0.066 and the protein stability index (ubr1∆) was 3.13 ± 0.12.
For PEGLLKSLWDYVKKNTE [TAF14], the protein stability index came out at 3.01 ± 0.17 (doa10∆), 2.12 ± 0.076 (pdr5∆) and 3.13 ± 0.094 (ubr1∆).
In the case of LNSYWVNQDSTYKYFEV [RPL15A], the protein stability index was determined as 3.23 ± 0.061 (doa10∆), 3.27 ± 0.076 (pdr5∆), 3.32 ± 0.041 (san1∆) and 3.2 ± 0.058 (ubr1∆).
In the case of FEKDLMAYFDENLNRNW [BRN1], the protein stability index (doa10∆) was 2.93 ± 0.059, the protein stability index (pdr5∆) turned out to be 3.27 ± 0.063, the protein stability index (san1∆) came out at 3.14 ± 0.056 and the protein stability index (ubr1∆) amounted to 3.17 ± 0.057.
The like results for LGLFIHKISFSGTKSEV [YJL039C/NUP192] were, in that order, 1.86 ± 0.072, 2.14 ± 0.055, 1.88 ± 0.085 and 2.12 ± 0.052.
The like results for NKLDEYHGLYTNYEMSY [LIN1] were, in that order, 1.56 ± 0.065, 1.78 ± 0.059, 1.78 ± 0.093 and 1.6 ± 0.068.
The like results for LKRLAWQYIVIDEAHRI [ISW2] were, in that order, 1.77 ± 0.077, 1.78 ± 0.1, 2.45 ± 0.077 and 1.13 ± 0.09.
As for ENVGTRLLPINVNKKAL [MED11], the protein stability index was determined as 2.87 ± 0.18 (doa10∆), 2.65 ± 0.13 (pdr5∆), 2.89 ± 0.094 (san1∆) and 2.98 ± 0.22 (ubr1∆).
As to QTAVTCESCSTVLCTPT [RPS27B], the protein stability index was found to be 1.89 ± 0.055 (doa10∆), 2.29 ± 0.058 (pdr5∆), 2.06 ± 0.071 (san1∆) and 2.09 ± 0.066 (ubr1∆).
Consider AAEPMDSKMIQDLSRNT [SNU114], for which the protein stability index reads like this: (doa10∆) 2.93 ± 0.18; (san1∆) 3.18 ± 0.19.
IVALSSEEINQYVTQIE [PRE6]: the protein stability index came to 3.1 ± 0.053 (doa10∆), 2.97 ± 0.053 (pdr5∆), 3.11 ± 0.037 (san1∆) and 3.05 ± 0.042 (ubr1∆).
The like results for SLWRRTVYSLSQQAGLD [YDL116W/NUP84] were, in that order, 1.9 ± 0.12, 2.39 ± 0.28, 1.78 ± 0.27 and 2.26 ± 0.08.
The corresponding values for ANPAGASQPEPTTNEPA [YJL041W/NSP1] are 2.82 ± 0.12, 3 ± 0.11, 2.92 ± 0.1 and 3.16 ± 0.095.
As for NINFASGVKNDILQSLS [CDC53], the protein stability index came out at 2.11 ± 0.066 (doa10∆), 2.39 ± 0.045 (pdr5∆), 1.65 ± 0.053 (san1∆) and 1.66 ± 0.045 (ubr1∆).
As to GLTSRLQRQQRKSKLNL [POP4], the protein stability index runs as follows: (doa10∆) 2.65 ± 0.12; (pdr5∆) 3.34 ± 0.18; (san1∆) 3.09 ± 0.063; (ubr1∆) 3.67 ± 0.27.
The corresponding values for QIENLNEVCLEKENRFE [SMC4] are 3.27 ± 0.17, 3.48 ± 0.1, 2.69 ± 0.23 and 3.4 ± 0.068.
For the sequence DCMIAHGAASFLKERLM [RPB2], the protein stability index is 3.03 ± 0.088 (doa10∆), 2.54 ± 0.068 (pdr5∆), 2.13 ± 0.1 (san1∆) and 2.09 ± 0.066 (ubr1∆).
The sequence QAIITERLVEFSNVNEL [YIL149C/MLP2] yielded a protein stability index (doa10∆) of 2.72 ± 0.19, a protein stability index (pdr5∆) of 3.38 ± 0.1, a protein stability index (san1∆) of 3.58 ± 0.15 and a protein stability index (ubr1∆) of 3.31 ± 0.12.
The corresponding values for NKDASLALQRGATVFVN [DPB4] are 2.61 ± 0.099, 2.29 ± 0.072, 2.88 ± 0.067 and 2.32 ± 0.083.
The like results for VSIVKLDTQLITLLPSS [SNF12] were, in that order, 1.73 ± 0.051, 1.9 ± 0.05, 1.95 ± 0.084 and 1.97 ± 0.051.
The like results for SVDITGGPWFTDGELDI [RPC34] were, in that order, 3.04 ± 0.14, 3.43 ± 0.12, 3.12 ± 0.13 and 3.18 ± 0.078.
With YNNRSLLDFNTALKQYE [RPN6], the protein stability index (doa10∆) came to 3.32 ± 0.097, the protein stability index (pdr5∆) amounted to 3.04 ± 0.084, the protein stability index (san1∆) amounted to 3.15 ± 0.067 and the protein stability index (ubr1∆) stood at 3.13 ± 0.099.
The corresponding values for EFFNPEIFHLLQPLEEG [SIN4] are 1.88 ± 0.079, 1.84 ± 0.064, 1.59 ± 0.086 and 2.07 ± 0.056.
Under “ubr1∆”, VGKRVPIVEDRRVKQLD [SIR4] returned a protein stability index of 3.35 ± 0.26.
TSTNGDSENNEENSSSN [RGR1] had a protein stability index (doa10∆) of 2.64 ± 0.18, a protein stability index (pdr5∆) of 3.18 ± 0.11, a protein stability index (san1∆) of 3.36 ± 0.11 and a protein stability index (ubr1∆) of 2.95 ± 0.086.
The like results for NEENDLDVDPAKRIRVS [RPB2] were, in that order, 3.01 ± 0.07, 3 ± 0.07, 3.11 ± 0.12 and 3.02 ± 0.047.
For the sequence AVGNLGNAVTVTEDGTV [RPL22A], the protein stability index reads like this: (doa10∆) 1.46 ± 0.062; (pdr5∆) 1.96 ± 0.094; (san1∆) 2.22 ± 0.095; (ubr1∆) 1.99 ± 0.094.
The corresponding values for KYIALQVIVDIFSVHGN [YCG1] are 1.26 ± 0.081, 1.36 ± 0.14, 1.14 ± 0.14 and 1.75 ± 0.16.
The corresponding values for QIPLHRAASVGSLKLIE [NAS6] are 2.04 ± 0.078, 2.16 ± 0.084, 2.23 ± 0.14 and 1.83 ± 0.1.

Source of the values: the supplement of paper PMC9732359.
